We go through 16 molecules from paper PMC5711802, “Conservation of folding and association within a family of spidroin N-terminal domains” (Scientific Reports, 2017).

Data set [1] addresses AttoOxa11-modified Q50C mutant of the MaSp1 NTD from Euprosthenops australis (Euprosthenops australis). The data set can be described thus: stopped-flow AttoOxa11 fluorescence chasing experiment (dissociation kinetics); dimer to monomers; 0.1 uM dimeric AttoOxa11-modified NTD in 20 mM MES pH 6.0, I 60 mM (KCl), chased with 9 uM non-modified NTD in the same buffer; 0.3 mg/mL BSA and 0.05% Tween-20; 298 K; mono-exponential fit.

The target in data set [2] is MaSp1 N-terminal domain (NTD), E. australis (UniProt Q05H60). Put plainly: stopped-flow Trp fluorescence, pH jump (association kinetics). The conditions noted are these: pH 6.0; 298 K; final value not stated (sample at I 150 mM KCl diluted 1:11 into 20 mM MES pH 6.0); 20 mM MES pH 6.0 after mixing (start: 10 mM MES pH 7.0).
The target is the same in data set [3]. The data set can be described thus: Kd calculated by the authors from the stopped-flow rate constants (kdiss from C4 / kass from C3). The conditions noted are these: pH 6.0; 298 K; about 60 mM (KCl) for kdiss; not stated exactly for kass; 20 mM MES pH 6.0.
Data set [4] has as its target MaSp1 NTD Q50C-AttoOxa11, L. geometricus Q50C. Put plainly: stopped-flow AttoOxa11 fluorescence, chasing experiment (dissociation kinetics). The conditions noted are these: pH 6.0; 298 K; I adjusted to 60 mM using potassium chloride; 20 mM MES pH 6.0.
The target in data set [5] is N-terminal domain (NTD) of major ampullate spidroin 1 (MaSp1) from Latrodectus hesperus (Latrodectus hesperus). The data set can be described thus: SEC-MALS; dimer conditions: 20 mM MES pH 6.0, ionic strength 60 mM (KCl); 100 uL at 5 mg/mL on Superdex-75 HR10/300, 0.5 ml/min.
Data set [6] has the same target. Put plainly: stopped-flow tryptophan fluorescence + other: stopped-flow AttoOxa11 fluorescence chasing experiment; dimer to monomers; Kd calculated as k diss/k ass from the two kinetic experiments; pH 6.0, 298 K.
The target is the same in data set [7]. The data set can be described thus: stopped-flow tryptophan fluorescence (association kinetics); monomer to dimer; monomeric NTD in 10 mM MES pH 7.0, I 150 mM (KCl), mixed 1:11 into 20 mM MES pH 6.0; three concentrations between 0.1 and 1 uM; 298 K; fit to a kinetic model of dimerization.
For data set [8], the target named is MaSp1 N-terminal domain (NTD), N. clavipes (UniProt B5SYS5). Put plainly: stopped-flow Trp fluorescence, pH jump (association kinetics). The following applies: pH 6.0; 298 K; final value not stated (sample at I 150 mM KCl diluted 1:11 into 20 mM MES pH 6.0); 20 mM MES pH 6.0 after mixing (start: 10 mM MES pH 7.0).
Data set [9] shares this target. The data set can be described thus: Kd calculated by the authors from the stopped-flow rate constants (kdiss from C4 / kass from C3). The following applies: pH 6.0; 298 K; about 60 mM (KCl) for kdiss; not stated exactly for kass; 20 mM MES pH 6.0.
In data set [10] the target is MaSp1 NTD Q50C-AttoOxa11, L. hesperus Q50C (UniProt A6YIY1). Put plainly: stopped-flow AttoOxa11 fluorescence, chasing experiment (dissociation kinetics). The conditions noted are these: pH 6.0; 298 K; I adjusted to 60 mM using potassium chloride; 20 mM MES pH 6.0.
In data set [11] the target is MaSp1 N-terminal domain (NTD), L. hesperus (UniProt A6YIY1). The data set can be described thus: stopped-flow Trp fluorescence, pH jump (association kinetics). The conditions noted are these: pH 6.0; 298 K; final value not stated (sample at I 150 mM KCl diluted 1:11 into 20 mM MES pH 6.0); 20 mM MES pH 6.0 after mixing (start: 10 mM MES pH 7.0).
The target is the same in data set [12]. The data set can be described thus: Kd calculated by the authors from the stopped-flow rate constants (kdiss from C4 / kass from C3). The following applies: pH 6.0; 298 K; about 60 mM (KCl) for kdiss; not stated exactly for kass; 20 mM MES pH 6.0.
Data set [13] has as its target MaSp1 NTD Q50C-AttoOxa11, N. clavipes Q50C (UniProt B5SYS5). The data set can be described thus: stopped-flow AttoOxa11 fluorescence, chasing experiment (dissociation kinetics). The conditions noted are these: pH 6.0; 298 K; I adjusted to 60 mM using potassium chloride; 20 mM MES pH 6.0.
Data set [14] deals with MaSp1 N-terminal domain (NTD), L. geometricus. The data set can be described thus: stopped-flow Trp fluorescence, pH jump (association kinetics). The conditions noted are these: pH 6.0; 298 K; final value not stated (sample at I 150 mM KCl diluted 1:11 into 20 mM MES pH 6.0); 20 mM MES pH 6.0 after mixing (start: 10 mM MES pH 7.0).
Data set [15] shares this target. Put plainly: Kd calculated by the authors from the stopped-flow rate constants (kdiss from C4 / kass from C3). The following applies: pH 6.0; 298 K; about 60 mM (KCl) for kdiss; not stated exactly for kass; 20 mM MES pH 6.0.
Data set [16] deals with MaSp1 NTD Q50C-AttoOxa11, E. australis Q50C (UniProt Q05H60). Put plainly: stopped-flow AttoOxa11 fluorescence, chasing experiment (dissociation kinetics). The conditions noted are these: pH 6.0; 298 K; I adjusted to 60 mM using potassium chloride; 20 mM MES pH 6.0.
The target in data set [17] is N-terminal domain (NTD) of major ampullate spidroin 1 (MaSp1) from Nephila clavipes (Nephila clavipes). The data set can be described thus: SEC-MALS; dimer conditions: 20 mM MES pH 6.0, ionic strength 60 mM (KCl); 100 uL at 5 mg/mL on Superdex-75 HR10/300, 0.5 ml/min. (In gel filtration, larger molecules generally elute earlier.)
For data set [18] the target is unchanged. Put plainly: stopped-flow tryptophan fluorescence + other: stopped-flow AttoOxa11 fluorescence chasing experiment; dimer to monomers; Kd calculated as k diss/k ass from the two kinetic experiments; pH 6.0, 298 K.
Data set [19] shares this target. Put plainly: stopped-flow tryptophan fluorescence (association kinetics); monomer to dimer; monomeric NTD in 10 mM MES pH 7.0, I 150 mM (KCl), mixed 1:11 into 20 mM MES pH 6.0; three concentrations between 0.1 and 1 uM; 298 K; fit to a kinetic model of dimerization.
Data set [20] deals with the molecule itself. Put plainly: stopped-flow AttoOxa11 fluorescence chasing experiment (dissociation kinetics); dimer to monomers; 0.1 uM dimeric AttoOxa11-modified NTD in 20 mM MES pH 6.0, I 60 mM (KCl), chased with 9 uM non-modified NTD in the same buffer; 0.3 mg/mL BSA and 0.05% Tween-20; 298 K; mono-exponential fit.
Data set [21] concerns the molecule itself. Put plainly: SEC-MALS; dimer conditions: 20 mM MES pH 6.0, ionic strength 60 mM (KCl); 100 uL at 5 mg/mL on Superdex-75 HR10/300, 0.5 ml/min.
Data set [22] concerns the molecule itself. The data set can be described thus: stopped-flow tryptophan fluorescence + other: stopped-flow AttoOxa11 fluorescence chasing experiment; dimer to monomers; Kd calculated as k diss/k ass from the two kinetic experiments; pH 6.0, 298 K.
Data set [23] deals with the molecule itself. The data set can be described thus: stopped-flow tryptophan fluorescence (association kinetics); monomer to dimer; monomeric NTD in 10 mM MES pH 7.0, I 150 mM (KCl), mixed 1:11 into 20 mM MES pH 6.0; three concentrations between 0.1 and 1 uM; 298 K; fit to a kinetic model of dimerization.
Data set [24] addresses T1, N-terminal domain (NTD) of major ampullate spidroin 1 (MaSp1) from Euprosthenops australis (Euprosthenops australis), Q05H60.
T1 chain: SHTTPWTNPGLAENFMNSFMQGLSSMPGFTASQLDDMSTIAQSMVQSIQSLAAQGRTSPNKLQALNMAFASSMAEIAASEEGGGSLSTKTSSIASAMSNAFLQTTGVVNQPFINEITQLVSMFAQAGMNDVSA
Put plainly: SEC-MALS; dimer conditions: 20 mM MES pH 6.0, ionic strength 60 mM (KCl); 100 uL at 5 mg/mL on Superdex-75 HR10/300, 0.5 ml/min. The conditions noted are these: remark: other sources report otherwise.

The target in data set [25] is T1, N-terminal domain (NTD) of major …. The data set can be described thus: stopped-flow tryptophan fluorescence + other: stopped-flow AttoOxa11 fluorescence chasing experiment; dimer to monomers; Kd calculated as k diss/k ass from the two kinetic experiments; pH 6.0, 298 K. The conditions noted are these: remark: other sources report otherwise.
Data set [26] shares this target. Put plainly: stopped-flow tryptophan fluorescence (association kinetics); monomer to dimer; monomeric NTD in 10 mM MES pH 7.0, I 150 mM (KCl), mixed 1:11 into 20 mM MES pH 6.0; three concentrations between 0.1 and 1 uM; 298 K; fit to a kinetic model of dimerization. The following applies: remark: other sources report otherwise.

Changes are numbered by the printed parent chain. Numbers in names are those of the source.

A word on the koff: it is a measure of how fast the partners let go of each other. Lower therefore signals slow dissociation. “AttoOxa11-modified Q50C mutant of the MaSp1 NTD from Euprosthenops australis (domain or fragment)” gave a koff in [1] of 1.68 s⁻¹.
Turning to “MaSp1 N-terminal domain (NTD), E. australis”, the k ass (10^9 M^-1 s^-1) in data set [2] is 1.58. For the same molecule, the K d in data set [3] is 1.07 10^-9 M.
With “MaSp1 NTD Q50C-AttoOxa11, L. geometricus Q50C”, in data set [4], the k diss was found to be 0.64 s⁻¹.
By stoichiometry N is commonly meant a count of units in the complex or per binding partner. Usually kon stands for the rate constant with which the complex forms. A lower kon goes with slow association. In the case of “N-terminal domain (NTD) of major ampullate spidroin 1 (MaSp1) from Latrodectus hesperus (domain or fragment)”, in data set [5], the stoichiometry N is 2. Moreover, in data set [6], the K d was 0.14 nM. For the same molecule, in [7], the kon came out at 2.19e+09 M⁻¹ s⁻¹.
Take “MaSp1 N-terminal domain (NTD), N. clavipes”: the k ass (10^9 M^-1 s^-1) in data set [8] is 2.58. The K d in data set [9] was 0.73 10^-9 M.
“MaSp1 NTD Q50C-AttoOxa11, L. hesperus Q50C”: the k diss in data set [10] was found to be 0.31 s⁻¹.
For “MaSp1 N-terminal domain (NTD), L. hesperus”, the k ass (10^9 M^-1 s^-1) in data set [11] came out at 2.19. For the same molecule, the K d in data set [12] is 0.14 10^-9 M.
The molecule “MaSp1 NTD Q50C-AttoOxa11, N. clavipes Q50C” came in with a k diss in data set [13] of 1.88 s⁻¹.
“MaSp1 N-terminal domain (NTD), L. geometricus” returned a k ass (10^9 M^-1 s^-1) in data set [14] of 1.39. Also, the K d in data set [15] was 0.46 10^-9 M.
For “MaSp1 NTD Q50C-AttoOxa11, E. australis Q50C”, the k diss in data set [16] came to 1.68 s⁻¹.
With “N-terminal domain (NTD) of major ampullate spidroin 1 (MaSp1) from Nephila clavipes (domain or fragment)”, the stoichiometry N in data set [17] was 2. For the same molecule, the K d in data set [18] was 0.73 nM. Further, the kon in data set [19] amounted to 2.58e+09 M⁻¹ s⁻¹.

B1: AttoOxa11-modified Q50C mutant of the MaSp1 NTD from Latrodectus hesperus (domain or fragment)
chain: PWSSKANADAFINSFISAASNTGSFSQDQMEDMSLIGNTLMCAMDNMGGRITPSKLQALDMAFASSVAEIAASEGGDLGVTTNAIADALTSAFYQTTGVVNSRFISEIRSLIGMFAQASAN
modifications: AttoOxa11 (maleimide derivative) on the cysteine at sequence position 50
Consider B1, for which the koff in [20] came out at 0.31 ± 0.02 s⁻¹.

B2: N-terminal domain (NTD) of major ampullate spidroin 1 (MaSp1) from Latrodectus geometricus (domain or fragment)
chain: B1 chain with A18S, S20Q, E31D, C42T, S102N, G113S
The Kd is the equilibrium constant for the complex coming apart. On to B2, for which the “stoichiometry N” value in [21] amounted to 2. The Kd in data set [22] was 0.46 nM. Moreover, the kon in data set [23] was 1.39e+09 M⁻¹ s⁻¹.

B3: AttoOxa11-modified Q50C mutant of the MaSp1 NTD from Latrodectus geometricus (domain or fragment)
chain: B1 chain with A18S, S20Q, E31D, S102N, G113S
modifications: AttoOxa11 (maleimide derivative) on the cysteine at sequence position 50
For B3, in [20], the off-rate (koff) came out at 0.64 ± 0.02 s⁻¹.

B4: N-terminal domain (NTD) of major ampullate spidroin 1 (MaSp1) from Euprosthenops australis, Q05H60 24-156 (domain or fragment)
chain: T1 chain
As to B4, in data set [24], the stoichiometry N was 2. In addition, the K d in data set [25] was 1.07 nM. Further, in data set [26], the kon came to 1.58e+09 M⁻¹ s⁻¹.

B5: AttoOxa11-modified Q50C mutant of the MaSp1 NTD from Nephila clavipes (domain or fragment)
chain: PWSSTELADAFINAFMNEAGRTGAFTADQLDDMSTIGDTIKCAMDKMARSNKSSKGKLQALNMAFASSMAEIAAVEQGGLSVDAKTNAIADSLNSAFYQTTGAANPQFVNEIRSLINMFAQSSAN
modifications: AttoOxa11 (maleimide derivative) on the cysteine at sequence position 50
In [20], B5 displayed a koff of 1.88 ± 0.05 s⁻¹.
